Laboratory results published in paper PMC7061092 (Physiological Reports, 2020).
Where two headings read alike, the source gives them in different places. No end group written: not given here.

Key:
WT hERG = WT hERG (Homo sapiens, UniProt Q12809); settings: for Isochronal percentage of hERG block (IhERG tail): terfenadine 100 nM, thioridazine 100 nM, dofetilide 10 nM, chloroquine 1 µM, ketoconazole 3 µM, mean ± SEM
Experimental: (§1) For transient transfection experiments, 24 hr after plating cells out, cells were transiently transfected with 0.5 µg of the F656V hERG construct using Lipofectamine^TM LTX (Invitrogen) according to the manufacturer's instructions. […] Cells were plated onto small sterilized glass coverslips 6 hr after transfection and recordings were made after at least 24 hr incubation at 37°C. Successfully transfected cells were identified using Dynabeads® (Invitrogen). All experimental data for the F656V hERG mutant channel were obtained from cells from a minimum of two transfections.
(§2) Recordings of hERG current (IhERG) and were made using an Axopatch 200 amplifier (Axon Instruments) and a CV201 head‐stage. Between 70%–80% of pipette series resistance was compensated. Voltage‐clamp commands were generated using “WinWCP” (John Dempster, Strathclyde University).
The A(x)1 and B(x)1 values were derived from Equation 1. […] Time courses of IhERG inhibition were fitted using either a single (Equation 3) exponential decay fit of the forms:(3) Y=Y^0-Plateau∗exp-K∗X+Plateau.
IhERG “tail” magnitude was measured relative to instantaneous current at −40 mV elicited by the brief (50 ms) depolarizing step that preceded the voltage command to +20 mV in the absence and presence of the drug. […] We also assessed the effects of drug block on IhERG time constants of deactivation. Tail currents on repolarization to −40mV were fitted using a biexponential to derive the fast τ1 and slow τ2 time constants of deactivation in control and after drug application.

F656V hERG = F656V hERG (Homo sapiens, UniProt Q12809, F656V); experiment: Whole-cell patch-clamp recording of IhERG in HEK 293 cells transiently transfected with F656V hERG at 37°C
Experimental: The F656V hERG mutation (Lees‐Miller, Duan, Teng, & Duff, 2000) was generated using the QuickChange® site‐directed mutagenesis kit (Stratagene). In brief, a pair of complementary oligonucleotide primers containing the mutation (forward primer sequence 5′[…]3′ and reverse primer sequence 5′ […]3′, synthesized by Sigma‐Genosys) was used in a PCR reaction (95°C for 1 min, 60°C for 1 min, 68°C for 16 min for 18 cycles) with hERG in a modified pcDNA3.0 vector as a DNA template. A DpnI digest of the PCR mix was then performed for 1 hr at 37°C. Competent DH5α Escherichia coli (Invitrogen) were transformed using standard procedures. The mutation was confirmed by sequencing of the entire open reading frame (Eurofins MWG Operon).
as §1, §2

[1] = 30 nM BeKm-1, absence of erythromycin
[2] = 30 nM BeKm-1 in the maintained presence of 3 µM erythromycin

## CCN(CC)CCCC(C)Nc1ccnc2cc(Cl)ccc12 (stereo not drawn) [Chloroquine, chloroquine]
WT hERG; 0 µM erythromycin
  Isochronal percentage of hERG block (IhERG tail): 48.4 ± 3.9 (n = 5) %
WT hERG; preincubation with 3 µM erythromycin
  Isochronal percentage of hERG block (IhERG tail): 70.8 ± 5.3 (n = 5) %
WT hERG; preincubation with 30 µM erythromycin
  Isochronal percentage of hERG block (IhERG tail): 77.8 ± 0.6 (n = 4) %
WT hERG; pretreatment with low concentrations of erythromycin (≤30 µM)
  nature of interaction with erythromycin pretreatment on hERG block: strong synergism

## BeKm‐1: peptide (scorpion) toxin, in house Fmoc-synthesized, externally acting hERG blocker (RPTDIKCSESYQCFPVCKSRFGKTNGRCVNGFCDCF; ends and bridges not checked; cysteine pairing not given here; UniProt Q9BKB7 22-57, looked up)
WT hERG
  % of IhERG block at steady state: 51.4 ± 4.6%
  WT IhERG tail block: 46.8 ± 5.0%
  reduction of WT IhERG tail: 52.2 ± 3.4%
  time course of WT hERG block: delayed
F656V hERG; [1]
  reduction of F656V IhERG: 74.5 ± 1.6%
  thalf of F656V IhERG inhibition: 14.2 ± 3.3 s
F656V hERG; [2]
  block of F656V IhERG at steady state: 69.4 ± 5.1%
  thalf of F656V IhERG inhibition: 20.7 ± 4.6 s
